The record followed here is article PMC8604404, “Kinesin-binding protein remodels the kinesin motor to prevent microtubule binding” (Science Advances, 2021).

First the molecules themselves.
B1: His6-KIF15-N375 (KIF15 motor domain, amino acids 1 to 375) (domain or fragment, human, UniProt Q9NS87 1-375, looked up)
chain: MAPGCKTELRSVTNGQSNQPSNEGDAIKVFVRIRPPAERSGSADGEQNLCLSVLSSTSLRLHSNPEPKTFTFDHVADVDTTQESVFATVAKSIVESCMSGYNGTIFAYGQTGSGKTFTMMGPSESDNFSHNLRGVIPRSFEYLFSLIDREKEKAGAGKSFLCKCSFIEIYNEQIYDLLDSASAGLYLREHIKKGVFVVGAVEQVVTSAAEAYQVLSGGWRNRRVASTSMNRESSRSHAVFTITIESMEKSNEIVNIRTSLLNLVDLAGSERQKDTHAEGMRLKEAGNINRSLSCLGQVITALVDVGNGKQRHVCYRDSKLTFLLRDSLGGNAKTAIIANVHPGSRCFGETLSTLNFAQRAKLIKNKAVVNEDTQG
notes: No cleavage of the tag is described; also called KIF15 (1 to 375); source: E. coli BL21-DE3, purified (Ni-NTA, Superdex 200)

What all share (settings): both partners purified
The target of assay [1] is T1, Kinesin-binding protein (KIFBP), wild type (UniProt Q96EK5 1-621).
T1 construct: also called KIFBP-WT; WT-KIFBP; source: E. coli BL21-DE3, purified (glutathione-Sepharose, PreScission cleavage, Superdex 200)
T1 sequence (looked up): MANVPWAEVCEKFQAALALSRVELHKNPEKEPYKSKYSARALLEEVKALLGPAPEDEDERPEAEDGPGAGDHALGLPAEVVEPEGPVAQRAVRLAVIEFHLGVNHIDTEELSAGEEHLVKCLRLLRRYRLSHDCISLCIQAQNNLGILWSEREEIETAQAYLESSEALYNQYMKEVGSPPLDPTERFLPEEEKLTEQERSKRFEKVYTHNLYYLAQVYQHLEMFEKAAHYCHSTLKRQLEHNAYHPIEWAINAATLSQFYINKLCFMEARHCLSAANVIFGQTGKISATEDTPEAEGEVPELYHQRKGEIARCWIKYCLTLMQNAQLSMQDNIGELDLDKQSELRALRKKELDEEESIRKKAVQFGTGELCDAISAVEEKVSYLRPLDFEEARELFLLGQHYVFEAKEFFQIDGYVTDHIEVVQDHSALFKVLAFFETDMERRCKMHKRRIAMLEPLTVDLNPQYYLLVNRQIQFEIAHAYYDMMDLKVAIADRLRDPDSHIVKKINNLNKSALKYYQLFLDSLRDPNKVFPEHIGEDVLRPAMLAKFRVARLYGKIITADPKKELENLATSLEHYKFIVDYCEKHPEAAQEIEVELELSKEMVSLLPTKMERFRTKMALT
Briefly: SEC; kinesin motor domain mixed with equimolar KIFBP, Superose 6, 10 mM K-Hepes pH 7.7, 50 mM KCl, 1 mM DTT, 0.2 mM MgATP; fractions analysed by SDS-PAGE.

In assay [2] the target is B1. The assay can be described thus: pull-down; His6-kinesin motor domain immobilised on Ni-NTA agarose, 20 ug KIFBP protein or GST in 200 ul, 10 mM Hepes pH 7.4, 50 mM KCl, 10 mM imidazole, 30 min at 4°C; Coomassie gel, ratio of KIFBP to kinesin in the pellet.
Assay [3] concerns the target T1, Kinesin-binding protein (KIFBP), wild …. The description is as above.

Take B1: in assay [1], the binding result is recorded as “binds”.

B2: KIFBP-L14^m (Loop-14 mutant of KIFBP) (natural protein, UniProt Q96EK5 1-621, looked up)
chain: MANVPWAEVCEKFQAALALSRVELHKNPEKEPYKSKYSARALLEEVKALLGPAPEDEDERPEAEDGPGAGDHALGLPAEVVEPEGPVAQRAVRLAVIEFHLGVNHIDTEELSAGEEHLVKCLRLLRRYRLSHDCISLCIQAQNNLGILWSEREEIETAQAYLESSEALYNQYMKEVGSPPLDPTERFLPEEEKLTEQERSKRFEKVYTHNLYYLAQVYQHLEMFEKAAHYCHSTLKRQLEHNAYHPIEWAINAATLSQFYINKLCFMEARHCLSAANVIFGQTGKISATEDTPEAEGEVPELYHQRKGEIARCWIKYCLTLMQNAQLSMQDNIGELDLDKQSELRALRKKELDEEESIRKKAVQFGTGELCDAISAVEEKVSYLRPLDFEEARELFLLGQHYVFEAKEFFQIDGYVTDHIEVVQDHSALFKVLAFFETDMERRCKMHKRRIAMLEPLTVAAAAAAYLLVNRQIQFEIAHAYYDMMDLKVAIADRLRDPDSHIVKKINNLNKSALKYYQLFLDSLRDPNKVFPEHIGEDVLRPAMLAKFRVARLYGKIITADPKKELENLATSLEHYKFIVDYCEKHPEAAQEIEVELELSKEMVSLLPTKMERFRTKMALT
notes: The methods tell the construction of mCherry-KIFBP-L14^m only, not of GST-KIFBP-L14^m; also called GST-KIFBP-L14^m; source: E. coli BL21-DE3, purified (glutathione-Sepharose, PreScission cleavage, Superdex 200)
As for B2, the “fold reduction in binding against KIFBP-WT” value in assay [2] is 2 fold.

B3: His6-KIF18A-N363 (KIF18A motor domain, amino acids 1 to 363) (domain or fragment, human, UniProt Q8NI77 1-363, looked up)
chain: MSVTEEDLCHHMKVVVRVRPENTKEKAAGFHKVVHVVDKHILVFDPKQEEVSFFHGKKTTNQNVIKKQNKDLKFVFDAVFDETSTQSEVFEHTTKPILRSFLNGYNCTVLAYGATGAGKTHTMLGSADEPGVMYLTMLHLYKCMDEIKEEKICSTAVSYLEVYNEQIRDLLVNSGPLAVREDTQKGVVVHGLTLHQPKSSEEILHLLDNGNKNRTQHPTDMNATSSRSHAVFQIYLRQQDKTASINQNVRIAKMSLIDLAGSERASTSGAKGTRFVEGTNINRSLLALGNVINALADSKRKNQHIPYRNSKLTRLLKDSLGGNCQTIMIAAVSPSSVFYDDTYNTLKYANRAKDIKSSLKSNV
notes: No cleavage of the tag is described; also called KIF18A (1-363); source: E. coli BL21-DE3, purified (Ni-NTA, Superdex 200)
Regarding B3, in assay [3], the binding result is reported as “binds”.
